From publication PMC6131487

How the values were obtained:
[1] = target: UL25 of HSV-2 (component of the capsid-vertex-specific component, CVSC) (herpes simplex virus 2 strain MS) (UniProt P89448); assay: cryo-EM structure; HSV-2 (MS strain) C-capsids assembled in infected Vero cells, detergent-treated (1% NP-40) and purified on sucrose gradients, in PBS; icosahedral plus block-based reconstruction, 3.75 Å overall (CVSC map 4.3 Å, CVSC head about 10 Å)
[2] = target: small capsid protein VP26 of HSV-2 (herpes simplex virus 2 strain MS) (UniProt P89458); assay: as above

UL25 of HSV-2 (component of the capsid-vertex-specific component, CVSC) (from UniProt P89448 1-585) (natural protein)
stoichiometry N [1]: 2

small capsid protein VP26 of HSV-2 (from UniProt P89458 1-112) (natural protein)
stoichiometry N [2]: 6
